# Source: publication PMC9171807 (Proceedings of the National Academy of Sciences of the …, 2022)
# T1: 17-residue MSLN C terminus peptide (human)
# T1 chain: IPNGYLVLDLSMQEALS
# Key:
# [1] = biological target: T1, 17-residue MSLN C terminus peptide; assay: crystal structure
# MSLN 296 to 591 = MSLN 296 to 591 (Homo sapiens (Human)., UniProt Q13421-3); assay: BLI
# MSLN–585-his = MSLN–585-his (Homo sapiens (Human)., UniProt Q13421-3); assay: ELISA
binding result [1],binding result (MSLN 296 to 591),binding result (MSLN–585-his),Binder
binds,no binding,–,"Fab fragment of mAb 15B6 (Fab, V domains shown) VH: EVQLQQSGPVLVKPGASVKISCKASGYSFTGYYMHWVRQSNGKSLEWIGRINPYTGVPSYKHNFKDKASLTVDKSSSTAYMELHSLTSEDSAVYYCARELGGYWGQGTTLTVSS VL: QAVVTQESALTTSPGETVTLTCRSSTGAVTTGNYPNWVQEKPDHLFTGLIAGTNNRAPGVPARFSGSLIGDKAALTITGAQTEDEAIYFCALWFSSHWVFGGGTKLTVL"
–,–,no binding,"monoclonal antibody (mAb) 15B6 (antibody, V domains shown) VH: EVQLQQSGPVLVKPGASVKISCKASGYSFTGYYMHWVRQSLVKRLEWIGRINPYTGVPSYKHNFKDKASLTVDKSSSTAYMELHSLTSEDSAVYYCARELGGYWGQGTTLTVSS VL: QAVVTQESALTTSPGETVTLTCRSSTGAVTTGNYPNWVQEKPDHLFTGLIAGTNNRAPGVPARFSGSLIGDKAALTITGAQTEDEAIYFCALWFSSHWVFGGGTKLTVL"
